According to PMC3463529:

How the values were obtained:
Experiment in all cases: SEC; Superose12 10/300 GL, lysis buffer for native purification, 0.4 ml/min; concentrated Ni2+-NTA eluate of GFP-perlucin (~20 mg/ml); peak fractions analysed by SDS-PAGE; sizes estimated against gel filtration standards (12 kDa - 2 MDa)
[1] = target: His-tagged GFP-perlucin derivative lacking 15 C-terminal amino acids (395 amino acids, 45 kDa) (Aequorea victoria | Haliotis laevigata) (UniProt P82596)
[2] = target: full length His-tagged GFP-perlucin (410 amino acids, 46.8 kDa) (Aequorea victoria | Haliotis laevigata) (UniProt P82596)
[3] = target: truncated His-tagged GFP-perlucin lacking 145 C-terminal amino acids (Aequorea victoria | Haliotis laevigata) (UniProt P82596)
[4] = target: truncated His-tagged GFP-perlucin lacking 141 C-terminal amino acids (Aequorea victoria | Haliotis laevigata) (UniProt P82596)

Substance	polypeptide chains in the complex (peak A, 395aa/410aa and truncated variants together) (polypeptide chains) [1]	polypeptide chains in the complex (peak A, 395aa/410aa and truncated variants together) (polypeptide chains) [2]	stoichiometry N (polypeptide chains) [3]	stoichiometry N (polypeptide chains) [4]
truncated His-tagged GFP-perlucin lacking 145 C-terminal amino acids (from UniProt P82596 1-10)	50	50	3 to 5	–
truncated His-tagged GFP-perlucin lacking 141 C-terminal amino acids (from UniProt P82596 1-14)	50	50	–	3 to 5
